This data set deals with Escherichia coli TOP10. The experiment in a line: shrunken log2 fold change of peptide-encoding DNA abundance (4.5 h post-induction vs induction); higher = less antimicrobial activity (less host growth inhibition). The settings on record: time post-induction: 4.5 h; library: site-saturation at positions 5, 18, 19, 20.
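Also: peptides expressed intracellularly from a pBAD plasmid library in pooled LB shake-flask culture, induced with 0.3% L-arabinose, DNA abundance read by NGS, three biological replicates, DESeq2 with apeglm shrinkage.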

As for RRIRARPPRLPRPRPRPWLSPRP, the “shrunken log2 fold change” value was 0.18.
As for RRIRFRPPRLPRPRPRPGQNPRP, the “shrunken log2 fold change” value stood at 0.0186.
The result for RRIRSRPPRLPRPRPRPKSWPRP reads 0.392; that for RRIRSRPPRLPRPRPRPKAPPRP, 0.184.
The result for RRIRQRPPRLPRPRPRPEQSPRP reads 0.142; that for RRIRERPPRLPRPRPRPKGYPRP, 0.016.
Turning to RRIRDRPPRLPRPRPRPTKPPRP, the “shrunken log2 fold change” value is -0.23.
Take RRIRCRPPRLPRPRPRPMEEPRP: the “shrunken log2 fold change” value is 0.0671.
RRIRKRPPRLPRPRPRPFFFPRP: the “shrunken log2 fold change” value amounted to 0.779.
On to RRIRARPPRLPRPRPRPWAYPRP, for which the “shrunken log2 fold change” value is -0.0297.
In the case of RRIRIRPPRLPRPRPRPQMVPRP, the “shrunken log2 fold change” value was -0.186.
As for RRIRSRPPRLPRPRPRPWQQPRP, the “shrunken log2 fold change” value was found to be 0.179.
The figure for RRIRFRPPRLPRPRPRPKKVPRP is 0.102.
Take RRIRDRPPRLPRPRPRPNPGPRP: the “shrunken log2 fold change” value was -0.117.
With RRIRDRPPRLPRPRPRPCHPPRP, the “shrunken log2 fold change” value is -0.0697.
In the case of RRIRERPPRLPRPRPRPLLWPRP, the “shrunken log2 fold change” value is -0.0136.
In the case of RRIRWRPPRLPRPRPRPGRQPRP, the “shrunken log2 fold change” value is -0.00663.
RRIRWRPPRLPRPRPRPHLNPRP: the “shrunken log2 fold change” value was determined as 0.0153.
Take RRIRTRPPRLPRPRPRPLKLPRP: the “shrunken log2 fold change” value is -0.251.
The result for RRIRWRPPRLPRPRPRPYVCPRP reads -0.00902; that for RRIRKRPPRLPRPRPRPTWFPRP, 0.203.
With RRIRQRPPRLPRPRPRPIHKPRP, the “shrunken log2 fold change” value is -0.651.
Take RRIRGRPPRLPRPRPRPMQRPRP: the “shrunken log2 fold change” value stood at 1.29.
In the case of RRIRPRPPRLPRPRPRPNETPRP, the “shrunken log2 fold change” value was 0.0335.
Consider RRIRKRPPRLPRPRPRPVITPRP, for which the “shrunken log2 fold change” value was -0.249.
With RRIRCRPPRLPRPRPRPIRDPRP, the “shrunken log2 fold change” value is -0.231.
As for RRIRHRPPRLPRPRPRPTHDPRP, the “shrunken log2 fold change” value is 0.124.
Turning to RRIRHRPPRLPRPRPRPFNDPRP, the “shrunken log2 fold change” value is -0.01.
Take RRIRRRPPRLPRPRPRPERHPRP: the “shrunken log2 fold change” value is 0.549.
Turning to RRIRDRPPRLPRPRPRPVMIPRP, the “shrunken log2 fold change” value came to 0.0644.
In the case of RRIRSRPPRLPRPRPRPDFYPRP, the “shrunken log2 fold change” value was -0.0521.
On to RRIRLRPPRLPRPRPRPLADPRP, for which the “shrunken log2 fold change” value is -0.0654.
RRIRQRPPRLPRPRPRPSGKPRP: the “shrunken log2 fold change” value was -0.147.
Regarding RRIRDRPPRLPRPRPRPMKTPRP, the “shrunken log2 fold change” value was -0.00973.
Consider RRIRSRPPRLPRPRPRPIYWPRP, for which the “shrunken log2 fold change” value was -0.0771.
With RRIRHRPPRLPRPRPRPFCYPRP, the “shrunken log2 fold change” value was -0.286.
For the sequence RRIRARPPRLPRPRPRPNGWPRP, the “shrunken log2 fold change” value is 0.401.
Regarding RRIRFRPPRLPRPRPRPFQHPRP, the “shrunken log2 fold change” value is -0.209.
The result for RRIRARPPRLPRPRPRPLPCPRP reads 0.13; that for RRIRYRPPRLPRPRPRPVSVPRP, -0.0879.
With RRIRERPPRLPRPRPRPSINPRP, the “shrunken log2 fold change” value is -0.798.
RRIRGRPPRLPRPRPRPSAEPRP: the “shrunken log2 fold change” value is 2.33.
Regarding RRIRGRPPRLPRPRPRPARIPRP, the “shrunken log2 fold change” value turned out to be 0.208.
Consider RRIRQRPPRLPRPRPRPSMFPRP, for which the “shrunken log2 fold change” value is -0.667.
With RRIRQRPPRLPRPRPRPNRVPRP, the “shrunken log2 fold change” value was -0.107.
As for RRIRQRPPRLPRPRPRPGPYPRP, the “shrunken log2 fold change” value was -0.0528.
With RRIRDRPPRLPRPRPRPEIVPRP, the “shrunken log2 fold change” value is 0.048.
As to RRIRQRPPRLPRPRPRPVFSPRP, the “shrunken log2 fold change” value was -0.192.
The result for RRIRERPPRLPRPRPRPWASPRP reads -0.00133.
For the sequence RRIRNRPPRLPRPRPRPHFNPRP, the “shrunken log2 fold change” value was -0.608.
Regarding RRIRRRPPRLPRPRPRPRTYPRP, the “shrunken log2 fold change” value is -0.213.
Consider RRIRSRPPRLPRPRPRPAYHPRP, for which the “shrunken log2 fold change” value is -0.1.
Turning to RRIRWRPPRLPRPRPRPDGNPRP, the “shrunken log2 fold change” value is 0.276.
The figure for RRIRCRPPRLPRPRPRPSWTPRP is -0.532; for RRIRNRPPRLPRPRPRPGHWPRP it is 0.291; for RRIRKRPPRLPRPRPRPGWMPRP it is 0.269.
On to RRIRGRPPRLPRPRPRPFMRPRP, for which the “shrunken log2 fold change” value is 0.567.
RRIRPRPPRLPRPRPRPWIIPRP: the “shrunken log2 fold change” value is -0.919.
Regarding RRIRLRPPRLPRPRPRPLEYPRP, the “shrunken log2 fold change” value is -0.116.
The result for RRIRPRPPRLPRPRPRPWRDPRP reads -0.00123; that for RRIRFRPPRLPRPRPRPTAFPRP, 0.0899.
Regarding RRIRTRPPRLPRPRPRPTSNPRP, the “shrunken log2 fold change” value is -0.43.
As for RRIRERPPRLPRPRPRPIQLPRP, the “shrunken log2 fold change” value was -0.446.
Regarding RRIRNRPPRLPRPRPRPHLRPRP, the “shrunken log2 fold change” value was -0.447.
The result for RRIRMRPPRLPRPRPRPVKTPRP reads 0.0113.
For the sequence RRIRLRPPRLPRPRPRPLSMPRP, the “shrunken log2 fold change” value is -0.163.
The result for RRIRQRPPRLPRPRPRPGDLPRP reads 0.01.
In the case of RRIRCRPPRLPRPRPRPYQIPRP, the “shrunken log2 fold change” value was -0.852.
The result for RRIRSRPPRLPRPRPRPMGNPRP reads 0.0909; that for RRIRCRPPRLPRPRPRPEPQPRP, 0.468.
The figure for RRIRERPPRLPRPRPRPCVEPRP is -0.11; for RRIRRRPPRLPRPRPRPAWQPRP it is 0.561; for RRIRSRPPRLPRPRPRPNRAPRP it is -0.0803.
The figure for RRIRERPPRLPRPRPRPGKIPRP is 0.139; for RRIRQRPPRLPRPRPRPYWRPRP it is 0.0113.
RRIRPRPPRLPRPRPRPQSVPRP: the “shrunken log2 fold change” value was -0.0354.
The result for RRIRMRPPRLPRPRPRPMIEPRP reads 0.17; that for RRIRGRPPRLPRPRPRPHKPPRP, 0.388; that for RRIRHRPPRLPRPRPRPHTGPRP, -0.226.
On to RRIRRRPPRLPRPRPRPYWYPRP, for which the “shrunken log2 fold change” value was -0.423.
The result for RRIRTRPPRLPRPRPRPYNSPRP reads -0.00162; that for RRIRGRPPRLPRPRPRPAQQPRP, 0.57.
Take RRIRFRPPRLPRPRPRPQICPRP: the “shrunken log2 fold change” value is -0.135.
Take RRIRIRPPRLPRPRPRPPWWPRP: the “shrunken log2 fold change” value came to 0.516.
The figure for RRIRNRPPRLPRPRPRPMWCPRP is -0.0647.
RRIRIRPPRLPRPRPRPAIPPRP: the “shrunken log2 fold change” value is -0.169.
In the case of RRIRIRPPRLPRPRPRPDRGPRP, the “shrunken log2 fold change” value was -0.0332.
Regarding RRIRPRPPRLPRPRPRPFESPRP, the “shrunken log2 fold change” value was 0.17.
For the sequence RRIRIRPPRLPRPRPRPHKKPRP, the “shrunken log2 fold change” value is -0.0912.
The figure for RRIRARPPRLPRPRPRPDQCPRP is 0.0213; for RRIRARPPRLPRPRPRPKLAPRP it is 0.555.
As for RRIRLRPPRLPRPRPRPCNWPRP, the “shrunken log2 fold change” value came to 0.0532.
In the case of RRIRTRPPRLPRPRPRPVVHPRP, the “shrunken log2 fold change” value is -0.0314.
In the case of RRIRHRPPRLPRPRPRPIYAPRP, the “shrunken log2 fold change” value turned out to be 0.0179.
The figure for RRIRERPPRLPRPRPRPTPEPRP is 0.122; for RRIRARPPRLPRPRPRPERMPRP it is 0.618.
On to RRIRIRPPRLPRPRPRPMDKPRP, for which the “shrunken log2 fold change” value was -0.448.
For RRIRIRPPRLPRPRPRPTPDPRP, the “shrunken log2 fold change” value is -0.0173.
The figure for RRIRHRPPRLPRPRPRPTINPRP is -0.459; for RRIRKRPPRLPRPRPRPMCGPRP it is 0.0595.
As to RRIRPRPPRLPRPRPRPEPNPRP, the “shrunken log2 fold change” value turned out to be 0.293.
With RRIRSRPPRLPRPRPRPGAMPRP, the “shrunken log2 fold change” value stood at 0.724.
Turning to RRIRGRPPRLPRPRPRPVWQPRP, the “shrunken log2 fold change” value turned out to be 0.174.
As to RRIRCRPPRLPRPRPRPSMPPRP, the “shrunken log2 fold change” value was -0.558.
With RRIRWRPPRLPRPRPRPQCNPRP, the “shrunken log2 fold change” value is -0.0929.
The result for RRIRTRPPRLPRPRPRPYENPRP reads -0.0748; that for RRIRWRPPRLPRPRPRPKIGPRP, -0.0273.
As to RRIRYRPPRLPRPRPRPFIMPRP, the “shrunken log2 fold change” value was -0.313.
The result for RRIRDRPPRLPRPRPRPYATPRP reads 0.0348; that for RRIRGRPPRLPRPRPRPGRTPRP, 0.498; that for RRIRRRPPRLPRPRPRPDAPPRP, 0.888.
Take RRIRTRPPRLPRPRPRPFVYPRP: the “shrunken log2 fold change” value was -0.639.
With RRIRSRPPRLPRPRPRPGRYPRP, the “shrunken log2 fold change” value was -0.344.
Consider RRIRFRPPRLPRPRPRPSDQPRP, for which the “shrunken log2 fold change” value is -0.302.
As to RRIRDRPPRLPRPRPRPKSWPRP, the “shrunken log2 fold change” value came to 0.421.
The result for RRIRYRPPRLPRPRPRPCVHPRP reads -0.0274; that for RRIRARPPRLPRPRPRPVSQPRP, 0.385.
On to RRIRDRPPRLPRPRPRPMHQPRP, for which the “shrunken log2 fold change” value turned out to be 0.126.
RRIRWRPPRLPRPRPRPFPPPRP: the “shrunken log2 fold change” value is -0.0255.
With RRIRGRPPRLPRPRPRPMACPRP, the “shrunken log2 fold change” value was -0.119.
Consider RRIRERPPRLPRPRPRPSDFPRP, for which the “shrunken log2 fold change” value is -0.149.
Take RRIRPRPPRLPRPRPRPAYTPRP: the “shrunken log2 fold change” value was -0.116.
Regarding RRIRVRPPRLPRPRPRPWTNPRP, the “shrunken log2 fold change” value was -0.584.
The result for RRIRYRPPRLPRPRPRPIMLPRP reads -3.12; that for RRIRYRPPRLPRPRPRPANQPRP, -0.131.
